The values below come from IntAct's records for PubMed 29892012.

The labels stand for the following.
B1: E3 ubiquitin-protein ligase LNX (Homo sapiens), Q8TBB1 (parent)
chain: MNQPESANDPEPLCAVCGQAHSLEENHFYSYPEEVDDDLICHICLQALLDPLDTPCGHTYCTLCLTNFLVEKDFCPMDRKPLVLQHCKKSSILVNKLLNKLLVTCPFREHCTQVLQRCDLEHHFQTSCKGASHYGLTKDRKRRSQDGCPDGCASLTATAPSPEVSAAATISLMTDEPGLDNPAYVSSAEDGQPAISPVDSGRSNRTRARPFERSTIRSRSFKKINRALSVLRRTKSGSAVANHADQGRENSENTTAPEVFPRLYHLIPDGEITSIKINRVDPSESLSIRLVGGSETPLVHIIIQHIYRDGVIARDGRLLPGDIILKVNGMDISNVPHNYAVRLLRQPCQVLWLTVMREQKFRSRNNGQAPDAYRPRDDSFHVILNKSSPEEQLGIKLVRKVDEPGVFIFNVLDGGVAYRHGQLEENDRVLAINGHDLRYGSPESAAHLIQASERRVHLVVSRQVRQRSPDIFQEAGWNSNGSWSPGPGERSNTPKPLHPTITCHEKVVNIQKDPGESLGMTVAGGASHREWDLPIYVISVEPGGVISRDGRIKTGDILLNVDGVELTEVSRSEAVALLKRTSSSIVLKALEVKEYEPQEDCSSPAALDSNHNMAPPSDWSPSWVMWLELPRCLYNCKDIVLRRNTAGSLGFCIVGGYEEYNGNKPFFIKSIVEGTPAYNDGRIRCGDILLAVNGRSTSGMIHACLARLLKELKGRITLTIVSWPGTFL
partner: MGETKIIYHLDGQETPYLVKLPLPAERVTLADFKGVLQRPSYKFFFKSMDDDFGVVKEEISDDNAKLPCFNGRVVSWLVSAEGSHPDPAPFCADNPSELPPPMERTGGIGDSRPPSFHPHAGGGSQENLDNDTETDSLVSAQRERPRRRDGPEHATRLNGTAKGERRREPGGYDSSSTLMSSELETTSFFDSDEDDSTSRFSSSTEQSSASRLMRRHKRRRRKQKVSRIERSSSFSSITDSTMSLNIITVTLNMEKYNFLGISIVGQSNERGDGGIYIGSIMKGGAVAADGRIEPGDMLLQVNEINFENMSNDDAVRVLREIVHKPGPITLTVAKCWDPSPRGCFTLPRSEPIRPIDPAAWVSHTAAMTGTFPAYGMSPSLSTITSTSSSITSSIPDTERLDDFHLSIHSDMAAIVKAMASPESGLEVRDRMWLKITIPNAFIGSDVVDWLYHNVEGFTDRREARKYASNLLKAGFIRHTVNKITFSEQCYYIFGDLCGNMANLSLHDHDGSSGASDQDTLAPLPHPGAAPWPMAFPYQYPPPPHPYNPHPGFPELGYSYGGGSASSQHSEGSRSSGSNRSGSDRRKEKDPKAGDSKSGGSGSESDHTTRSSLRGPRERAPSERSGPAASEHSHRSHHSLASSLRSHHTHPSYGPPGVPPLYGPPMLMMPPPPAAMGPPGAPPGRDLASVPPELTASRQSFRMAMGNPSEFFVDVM
B2: Zinc finger protein 786 (Homo sapiens), Q8N393 (parent)
chain: MAEPPRLPLTFEDVAIYFSEQEWQDLEAWQKELYKHVMRSNYETLVSLDDGLPKPELISWIEHGGEPFRKWRESQKSGNIICSSVDMHFDPGFEEQLFWGSQQAMNSGKTKSHFQLDPESQCSFGSFVSFRPDQGITLGSPQRHDARAPPPLACGPSESTLKEGIPGPRNLDLPGLWDVPAWESTQHPWPVCGESCWENNHLVMHQRGHSKDRTRRAWEKFNKRAETQMPWSSPRVQRHFRCGVCGKSFRRKLCLLRHLAAHTGRGPFRNADGEMCFRHELTHPSHRLPQQGEKPAQCTPCGKRSLPVDSTQARRCQHSREGPASWREGRGASSSVHSGQKPGSRLPQEGNSHQEGDTEALQHGAEGPCSCSECGERSPMSARLASPCRAHTGEKPFQCAHCTKRFRLRRLLQVHQHAHGGERPFSCRKCGKGFAKQCKLTEHIRVHSGEKPFRCAKCGRNFRQRGQLLRHQRLHTDEKPFQCPECGLSFRLESMLRAHRLRHGGERPFSCSECGRGFTHQCKLREHLRVHSGERPFQCLKCDKRFRLKGILKAHQHTHSKERPFSCGECGKGFTRQSKLTEHLRVHSGERPFQCPECNRSFRLKGQLLSHQRLHTGERPFQCPECDKRYRVKADMKAHQLLHSGEMPFSCECGKGFVKHSKLIEHIRTHTGEKPFQCPKCDKSFRLKAQLLSHQGLHTGERPFHCPECDKNFRERGHMLRHQRIHRPERPFACGDCGKGFIYKSKLAEHIRVHTKSCPAPNELDIKKRLSQLFAMIEADWS
B3: Chorion-specific transcription factor GCMb (Homo sapiens), O75603 (parent)
chain: MPAAAVQEAVGVCSYGMQLSWDINDPQMPQELALFDQFREWPDGYVRFIYSSDEKKAQRHLSGWAMRNTNNHNGHILKKSCLGVVVCTQACTLPDGSRLQLRPAICDKARLKQQKKACPNCHSALELIPCRGHSGYPVTNFWRLDGNAIFFQAKGVHDHPRPESKSETEARRSAIKRQMASFYQPQKKRIRESEAEENQDSSGHFSNIPPLENPEDFDIVTETSFPIPGQPCPSFPKSDVYKATCDLATFQGDKMPPFQKYSSPRIYLPRPPCSYELANPGYTNSSPYPTLYKDSTSIPNDTDWVHLNTLQCNVNSYSSYERSFDFTNKQHGWKPALGKPSLVERTNHGQFQAMATRPYYNPELPCRYLTTPPPGAPALQTVITTTTKVSYQAYQPPAMKYSDSVREVKSLSSCNYAPEDTGMSVYPEPWGPPVTVTRAASPSGPPPMKIAGDCRAIRPTVAIPHEPVSSRTDEAETWDVCLSGLGSAVSYSDRVGPFFTYNNEDF
partner: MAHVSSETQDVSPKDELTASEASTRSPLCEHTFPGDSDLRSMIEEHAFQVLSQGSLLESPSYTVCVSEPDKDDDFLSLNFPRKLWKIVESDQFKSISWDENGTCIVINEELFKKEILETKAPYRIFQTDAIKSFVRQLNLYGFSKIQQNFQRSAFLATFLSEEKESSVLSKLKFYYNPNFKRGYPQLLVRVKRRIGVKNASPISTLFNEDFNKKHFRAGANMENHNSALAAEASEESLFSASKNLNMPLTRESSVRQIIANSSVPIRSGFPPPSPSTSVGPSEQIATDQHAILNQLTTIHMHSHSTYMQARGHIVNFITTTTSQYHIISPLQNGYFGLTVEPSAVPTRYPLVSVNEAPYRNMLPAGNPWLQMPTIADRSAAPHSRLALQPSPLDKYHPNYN
B4: Syntaxin-3 (Homo sapiens), Q13277 (parent)
chain: MKDRLEQLKAKQLTQDDDTDAVEIAIDNTAFMDEFFSEIEETRLNIDKISEHVEEAKKLYSIILSAPIPEPKTKDDLEQLTTEIKKRANNVRNKLKSMEKHIEEDEVRSSADLRIRKSQHSVLSRKFVEVMTKYNEAQVDFRERSKGRIQRQLEITGKKTTDEELEEMLESGNPAIFTSGIIDSQISKQALSEIEGRHKDIVRLESSIKELHDMFMDIAMLVENQGEMLDNIELNVMHTVDHVEKARDETKKAVKYQSQARKKLIIIIVLVVVLLGILALIIGLSVGLN
partner: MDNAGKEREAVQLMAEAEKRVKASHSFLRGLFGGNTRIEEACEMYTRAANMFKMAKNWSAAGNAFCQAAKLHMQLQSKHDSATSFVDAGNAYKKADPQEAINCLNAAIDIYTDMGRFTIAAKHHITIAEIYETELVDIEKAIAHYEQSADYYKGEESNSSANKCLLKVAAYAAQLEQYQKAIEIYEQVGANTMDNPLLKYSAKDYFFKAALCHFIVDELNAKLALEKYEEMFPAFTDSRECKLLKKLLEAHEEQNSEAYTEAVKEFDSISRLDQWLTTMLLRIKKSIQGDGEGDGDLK

Variants of B1 are the subject of one assay. The settings on record: with dvl3_human DVL3, Q92997.
As to E295K, the “effect of a mutation on the interaction” value is “disrupting interaction strength”.

Variants of B2 are the subject of the next assay. The settings on record: with kr103_human KRTAP10-3, P60369.
kr103_human KRTAP10-3, P60369, sequence (P60369 whole entry): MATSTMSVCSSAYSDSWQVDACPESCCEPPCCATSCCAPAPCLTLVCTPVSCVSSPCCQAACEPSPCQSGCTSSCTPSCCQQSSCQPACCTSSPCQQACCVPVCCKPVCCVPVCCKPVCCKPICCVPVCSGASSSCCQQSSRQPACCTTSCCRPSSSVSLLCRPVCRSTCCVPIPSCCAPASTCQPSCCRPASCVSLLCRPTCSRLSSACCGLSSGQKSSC
Turning to V37A, the “effect of a mutation on the interaction” value is “with no effect”.

The variants in the next assay derive from B2. The settings on record: with kr103_human KRTAP10-3, P60369. This is another data set of the same source.
As for S112R, the “effect of a mutation on the interaction” value is listed as “with no effect”.

In a further assay the parent is B3. The settings on record: with hsfy1_human HSFY1, Q96LI6.
Regarding G349E, the “effect of a mutation on the interaction” value was “with no effect”.

Variants of B4 are the subject of another assay. The following applies: with snab_human NAPB.
Regarding K199E, the “effect of a mutation on the interaction” value is listed as “disrupting interaction strength”.
